The source of these data is US20060235215A1 (published 2006).

T1: Beta-Expansin EXPB2, prey clone aa 80-218 (Oryza sativa, UniProt O24230 80-218)
T1 construct: prey; AD fusion; input trait library; two clones; also called OsEXPB2; PN19902
T1 sequence: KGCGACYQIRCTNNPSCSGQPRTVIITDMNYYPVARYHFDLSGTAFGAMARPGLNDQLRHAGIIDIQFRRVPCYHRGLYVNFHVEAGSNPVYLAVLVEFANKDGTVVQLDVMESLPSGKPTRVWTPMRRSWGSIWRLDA

T2: Novel Protein 23053, Fragment, Similar to Arabidopsis Putative Na+-Dependent Inorganic Phosphate … (Oryza sativa, UniProt Q8W0H5 141-320)
T2 construct: prey; AD fusion; input trait library; two clones; also called OsPN23053
T2 sequence: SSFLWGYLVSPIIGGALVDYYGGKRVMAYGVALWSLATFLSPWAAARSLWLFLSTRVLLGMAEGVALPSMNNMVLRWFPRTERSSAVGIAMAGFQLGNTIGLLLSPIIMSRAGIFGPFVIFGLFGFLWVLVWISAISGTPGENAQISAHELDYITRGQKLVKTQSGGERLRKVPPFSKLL

T3: O. sativa Putative 14-3-3 Protein, prey clone aa 53-259 (Oryza sativa, UniProt Q06967 53-259)
T3 construct: prey; AD fusion; input trait library; four clones; also called Os008938-3209; PN20215
T3 sequence: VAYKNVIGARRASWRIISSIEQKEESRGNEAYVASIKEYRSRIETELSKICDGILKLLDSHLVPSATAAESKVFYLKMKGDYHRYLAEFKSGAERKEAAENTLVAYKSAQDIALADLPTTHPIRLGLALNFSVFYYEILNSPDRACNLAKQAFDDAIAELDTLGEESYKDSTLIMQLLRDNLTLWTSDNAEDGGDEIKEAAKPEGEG

T4: Novel Protein PN23485, Similar to Hordeum vulgare Coproporphyrinogen III Oxidase, chloroplast precursor, prey … (Oryza sativa, UniProt Q7XPL2 165-318)
T4 construct: prey; AD fusion; output trait library; also called OsPN23485
T4 sequence: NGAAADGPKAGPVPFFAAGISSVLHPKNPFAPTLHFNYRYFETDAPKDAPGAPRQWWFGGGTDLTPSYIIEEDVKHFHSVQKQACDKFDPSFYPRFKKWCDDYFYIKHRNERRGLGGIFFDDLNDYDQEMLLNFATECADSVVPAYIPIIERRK

T5: Beta-Expansin EXPB2, prey clone aa 80-207 (Oryza sativa, UniProt O24230 80-207)
T5 construct: prey; AD fusion; input trait library; also called OsEXPB2; PN19902
T5 sequence: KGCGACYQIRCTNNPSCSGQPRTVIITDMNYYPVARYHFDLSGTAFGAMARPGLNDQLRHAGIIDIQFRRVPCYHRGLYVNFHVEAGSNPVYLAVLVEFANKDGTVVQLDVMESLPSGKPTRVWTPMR

B1: Hypothetical Protein 006819-2510, Similar to Hemerocallis Senescence-Related Protein 5, bait fragment aa 1-150 (other)
chain: MAFRLSNSLLGILNAVTFLLSVPVLGGGIWLATRADGTECERYFSAPVIAFGVFLLLVSLAGLVGACCRVNCLLWFYLVAMFVLIVVLFCFTVFAFVVTNKGAGEAVSGRGYKEYRLGDYSNWLQKRMENSKNWNRIRSCLQDSKVCKKL
notes: bait; also called Os006819-2510; PN20462
B2: O. sativa Defender Against Apoptotic Death 1, bait clone aa 30-115 (other)
chain: DLYVVFAVATALIQVVYMGIVGSFPFNSFLSGVLSCIGTAVLAVCLRIQVNKDNKEFKDLPPERAFADFVLCNLVLHLVIMNFLG
notes: bait; text says OsDAD1 has 114 aa; also called OsDAD1; PN20251
B3: O. sativa Chilling-Inducible Protein CAA90866, bait clone aa 100-250 (other)
chain: GEMTERVAQEDRIPVLKASQDHLKEFISICEALELISEDELEISRQKNLIPWQIEEHRRLHGSSAKRLQKQSSRIKERKERRRRHESSCLSAPIELGGDLLRMMEKEREGMVSYYLIGSIEGFDLLDMLKKEEEIVPAVKEGKRRMVMHLL
notes: bait; also called OsCAA90866; PN20311
B4: Hypothetical Protein 006819-2510, Similar to Hemerocallis Senescence-Related Protein 5, bait fragment aa 1-273 (other)
chain: MAFRLSNSLLGILNAVTFLLSVPVLGGGIWLATRADGTECERYFSAPVIAFGVFLLLVSLAGLVGACCRVNCLLWFYLVAMFVLIVVLFCFTVFAFVVTNKGAGEAVSGRGYKEYRLGDYSNWLQKRMENSKNWNRIRSCLQDSKVCKKLQDKNWDRTQFFKADLSPLESGCCKPPSSCNFLYVSGTNWTKVPTNSSDPDCNTWVDDGTQLCYNCQSCKAGAVATLKRDWKRVAVVCIVFLVFIVIVYSLGCCAFRNNRRDNRGAYRGAAWKG
notes: as for B1
B5: O. sativa Defender Against Apoptotic Death 1, bait clone aa 1-115 (other)
chain: MPRATSDAKLLIQSLGKAYAATPTNLKIIDLYVVFAVATALIQVVYMGIVGSFPFNSFLSGVLSCIGTAVLAVCLRIQVNKDNKEFKDLPPERAFADFVLCNLVLHLVIMNFLG
notes: as for B2
B6: Novel Protein PN23226, Callose synthase, prey clone aa 345-432 (other)
chain: WFMSNQETSFVTIGQRVLANPLRVRFHYGHPDIFDRLFHLTRGGVSKASKIINLSEDIFAGFNSTLREGNVTHHEYMQVGKGRDVGLN
notes: prey; AD fusion; output trait library; also called OsPN23226

Holding throughout (experiment): yeast two-hybrid
The target in assay [1] is T6, O. sativa Histone Deacetylase HD1, prey clone aa 90-221 (Oryza sativa, UniProt Q7Y0Y8 90-221).
T6 construct: prey; AD fusion; output trait library; also called OsAAK01712; PN24059
T6 sequence (Q7Y0Y8 90-221): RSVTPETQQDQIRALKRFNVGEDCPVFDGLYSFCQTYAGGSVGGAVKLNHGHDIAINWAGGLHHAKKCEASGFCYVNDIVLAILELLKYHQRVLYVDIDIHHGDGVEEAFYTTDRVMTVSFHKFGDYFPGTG

Assay [2] addresses T1, Beta-Expansin EXPB2, prey clone aa ….
Assay [3] concerns the target T2, Novel Protein 23053, Fragment, Similar ….
Assay [4] deals with T3, O. sativa Putative 14-3-3 Protein, prey ….
The target of assay [5] is T4, Novel Protein PN23485, Similar to ….
The target of assay [6] is T5, Beta-Expansin EXPB2, prey clone aa ….
Assay [7] has as its target B4.

For B1, the binding result in assay [1] is listed as “binds”.

For B2, the binding result in assay [2] and in assay [3] was “binds” each time.

Consider B3, for which the binding result in assay [4] is “binds”.

Take B4: the binding result in assay [5] was “binds”.

For B5, in assay [6], the binding result is given as “binds”.

As to B6, the binding result in assay [7] is listed as “binds”.
